# Results from the supplement of paper PMC9112550, “Optimization of the antimicrobial peptide Bac7 by deep mutational scanning” (BMC Biology, 2022).
# System: Escherichia coli TOP10
# Assay: shrunken log2 fold change of peptide-encoding DNA abundance (4.5 h post-induction vs induction); higher = less antimicrobial activity (less host growth inhibition)
# Conditions: time post-induction: 4.5 h; library: site-saturation at positions 5, 18, 19, 20
# 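Note: peptides expressed intracellularly from a pBAD plasmid library in pooled LB shake-flask culture, induced with 0.3% L-arabinose, DNA abundance read by NGS, three biological replicates, DESeq2 with apeglm shrinkage.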
row,Sequence,shrunken log2 fold change
1,RRIRWRPPRLPRPRPRPPNTPRP,0.142
2,RRIRFRPPRLPRPRPRPWMSPRP,-0.0139
3,RRIRNRPPRLPRPRPRPMEHPRP,0.0201
4,RRIRLRPPRLPRPRPRPKQVPRP,-0.0171
5,RRIRMRPPRLPRPRPRPYAKPRP,0.00938
6,RRIRYRPPRLPRPRPRPPWFPRP,-0.205
7,RRIRLRPPRLPRPRPRPLMAPRP,-0.246
8,RRIRVRPPRLPRPRPRPIREPRP,-0.152
9,RRIRNRPPRLPRPRPRPGIGPRP,0.239
10,RRIRQRPPRLPRPRPRPMMSPRP,-0.0325
11,RRIRKRPPRLPRPRPRPDRLPRP,-0.038
12,RRIRVRPPRLPRPRPRPRWNPRP,0.132
13,RRIRDRPPRLPRPRPRPVWAPRP,0.548
14,RRIRCRPPRLPRPRPRPQNQPRP,-0.00207
15,RRIRQRPPRLPRPRPRPWQYPRP,-0.366
16,RRIRPRPPRLPRPRPRPNSHPRP,-0.521
17,RRIRKRPPRLPRPRPRPWNQPRP,-0.0169
18,RRIRMRPPRLPRPRPRPFCHPRP,-0.0129
19,RRIRQRPPRLPRPRPRPIVCPRP,-0.137
20,RRIRERPPRLPRPRPRPAKIPRP,0.039
21,RRIRYRPPRLPRPRPRPCYEPRP,-0.246
22,RRIRHRPPRLPRPRPRPEHFPRP,-0.00153

row,Sequence,shrunken log2 fold change
1,RRIRPRPPRLPRPRPRPVWQPRP,0.23
2,RRIRVRPPRLPRPRPRPLKDPRP,-0.242
3,RRIRWRPPRLPRPRPRPCFQPRP,-0.222
4,RRIRARPPRLPRPRPRPTDFPRP,-0.000766
5,RRIRVRPPRLPRPRPRPRFFPRP,0.287
6,RRIRPRPPRLPRPRPRPIKRPRP,-0.125
7,RRIRERPPRLPRPRPRPQRVPRP,-0.167
8,RRIRTRPPRLPRPRPRPEFYPRP,-0.212
9,RRIRWRPPRLPRPRPRPSEEPRP,0.129
10,RRIRARPPRLPRPRPRPLRWPRP,0.809
11,RRIRKRPPRLPRPRPRPEFAPRP,1.03
12,RRIRYRPPRLPRPRPRPSIHPRP,-0.722
13,RRIRVRPPRLPRPRPRPTLPPRP,0.335
14,RRIRHRPPRLPRPRPRPHKHPRP,-0.546
15,RRIRSRPPRLPRPRPRPPVPPRP,0.378
16,RRIRFRPPRLPRPRPRPTDYPRP,-0.578
17,RRIRHRPPRLPRPRPRPVHVPRP,-0.16
18,RRIRERPPRLPRPRPRPCEQPRP,-0.0101
19,RRIRVRPPRLPRPRPRPVAHPRP,0.0271
20,RRIRKRPPRLPRPRPRPFEHPRP,-0.0326
21,RRIRQRPPRLPRPRPRPVLFPRP,0.166
22,RRIRDRPPRLPRPRPRPDDAPRP,0.365

row,Sequence,shrunken log2 fold change
1,RRIRNRPPRLPRPRPRPVTSPRP,-0.469
2,RRIRHRPPRLPRPRPRPRSGPRP,-0.0415
3,RRIRHRPPRLPRPRPRPSYLPRP,-0.683
4,RRIRDRPPRLPRPRPRPQHLPRP,-0.444
5,RRIRQRPPRLPRPRPRPHYKPRP,-1.18
6,RRIRWRPPRLPRPRPRPKSSPRP,0.000999
7,RRIRGRPPRLPRPRPRPDPVPRP,0.951
8,RRIRCRPPRLPRPRPRPVLTPRP,-0.191
9,RRIRGRPPRLPRPRPRPGSTPRP,0.75
10,RRIRVRPPRLPRPRPRPNTCPRP,-0.101
11,RRIRARPPRLPRPRPRPEHYPRP,0.068
12,RRIRRRPPRLPRPRPRPIICPRP,0.0738
13,RRIRVRPPRLPRPRPRPAFWPRP,2.56
14,RRIRPRPPRLPRPRPRPLHTPRP,-0.128
15,RRIRWRPPRLPRPRPRPRNWPRP,0.172
16,RRIRDRPPRLPRPRPRPARDPRP,0.724
17,RRIRIRPPRLPRPRPRPRGKPRP,0.086
18,RRIRHRPPRLPRPRPRPHDRPRP,-0.218
19,RRIRLRPPRLPRPRPRPVKEPRP,0.0114
20,RRIRERPPRLPRPRPRPHYHPRP,-0.356
21,RRIRFRPPRLPRPRPRPSSEPRP,-0.134
22,RRIRHRPPRLPRPRPRPACYPRP,-0.226

row,Sequence,shrunken log2 fold change
1,RRIRYRPPRLPRPRPRPEYHPRP,-0.0883
2,RRIRWRPPRLPRPRPRPYYRPRP,-0.0707
3,RRIRARPPRLPRPRPRPSSDPRP,0.301
4,RRIRWRPPRLPRPRPRPTGHPRP,0.317
5,RRIRVRPPRLPRPRPRPTKRPRP,0.331
6,RRIRWRPPRLPRPRPRPWTHPRP,-0.11
7,RRIRQRPPRLPRPRPRPKQIPRP,-0.103
8,RRIRDRPPRLPRPRPRPIMLPRP,-0.0957
9,RRIRVRPPRLPRPRPRPAWGPRP,0.515
10,RRIRPRPPRLPRPRPRPEWPPRP,0.449
11,RRIRCRPPRLPRPRPRPGFCPRP,0.124
12,RRIRGRPPRLPRPRPRPMYPPRP,0.244
13,RRIRLRPPRLPRPRPRPVIWPRP,0.0724
14,RRIRLRPPRLPRPRPRPDMYPRP,-0.0404
15,RRIRMRPPRLPRPRPRPTYRPRP,0.422
16,RRIRYRPPRLPRPRPRPKFCPRP,-0.291
17,RRIRYRPPRLPRPRPRPGNCPRP,-0.152
18,RRIRERPPRLPRPRPRPTHAPRP,0.332
19,RRIRWRPPRLPRPRPRPLASPRP,0.26
20,RRIRARPPRLPRPRPRPEMHPRP,1.1
21,RRIRKRPPRLPRPRPRPRQRPRP,1.57
22,RRIRYRPPRLPRPRPRPEIVPRP,-0.00224

row,Sequence,shrunken log2 fold change
1,RRIRNRPPRLPRPRPRPVHCPRP,-0.123
2,RRIRCRPPRLPRPRPRPHAGPRP,0.185
3,RRIRPRPPRLPRPRPRPGPRPRP,0.677
4,RRIRDRPPRLPRPRPRPIFHPRP,-0.158
5,RRIRARPPRLPRPRPRPMGCPRP,0.495
6,RRIRQRPPRLPRPRPRPARMPRP,0.195
7,RRIRYRPPRLPRPRPRPLQVPRP,-0.0974
8,RRIRSRPPRLPRPRPRPYHGPRP,-0.397
9,RRIRGRPPRLPRPRPRPAHMPRP,0.145
10,RRIRWRPPRLPRPRPRPWAHPRP,0.0966
11,RRIRGRPPRLPRPRPRPWREPRP,0.599
12,RRIRWRPPRLPRPRPRPFGIPRP,-0.115
13,RRIRIRPPRLPRPRPRPSAPPRP,-0.00138
14,RRIRKRPPRLPRPRPRPVEHPRP,0.455
15,RRIRPRPPRLPRPRPRPGIMPRP,-0.2
16,RRIRQRPPRLPRPRPRPRSRPRP,0.0402
17,RRIRHRPPRLPRPRPRPGWNPRP,0.0316
18,RRIRKRPPRLPRPRPRPACSPRP,0.341
19,RRIRVRPPRLPRPRPRPESSPRP,0.00518
20,RRIRGRPPRLPRPRPRPGFQPRP,0.157
21,RRIRCRPPRLPRPRPRPGGDPRP,0.142
